B1: anti-CD20 human IgG1 L234Q/L235T/G236R (antibody)
heavy: QVQLQQPGAELVKPGASVKMSCKASGYTFTSYNMHWVKQTPGRGLEWIGAIYPGNGDTSYNQKFKGKATLTADKSSSTAYMQLSSLTSEDSAVYYCARSTYYGGDWYFNVWGAGTTVTVSSASTKGPSVFPLAPSSKSTSGGTAALGCLVKDYFPEPVTVSWNSGALTSGVHTFPAVLQSSGLYSLSSVVTVPSSSLGTQTYICNVNHKPSNTKVDKKVEPKSCDKTHTCPPCPAPEQTRGPSVFLFPPKPKDTLMISRTPEVTCVVVDVSHEDPEVKFNWYVDGVEVHNAKTKPREEQYNSTYRVVSVLTVLHQDWLNGKEYKCKVSNKALPAPIEKTISKAKGQPREPQVYTLPPSRDELTKNQVSLTCLVKGFYPSDIAVEWESNGQPENNYKTTPPVLDSDGSFFLYSKLTVDKSRWQQGNVFSCSVMHEALHNHYTQKSLSLSPGK
light: QIVLSQSPAILSASPGEKVTMTCRASSSVSYIHWFQQKPGSSPKPWIYATSNLASGVPVRFSGSGSGTSYSLTISRVEAEDAATYYCQQWTSNPPTFGGGTKLEIKRTVAAPSVFIFPPSDEQLKSGTASVVCLLNNFYPREAKVQWKVDNALQSGNSQESVTEQDSKDSTYSLSSTLTLSKADYEKHKVYACEVTHQGLSSPVTKSFNRGEC
notes: also called 1-120
B2: anti-CD20 human IgG1 L234R/L235Q/G236R (antibody)
heavy: B1 heavy with Q238R, T239Q
light: B1 light
notes: also called 2-42
B3: anti-CD20 human IgG1 L234K/L235Q/G236R (antibody)
heavy: B1 heavy with Q238K, T239Q
light: B1 light
notes: also called 2-22; 1-87
B4: anti-CD20 human IgG1 L234A/L235A/G236R (antibody)
heavy: not shown
light: B1 light
notes: also called 2-2; 1-2
B5: anti-CD20 human IgG1 L234H/L235S/G236R (antibody)
heavy: B1 heavy with Q238H, T239S
light: B1 light
notes: also called 2-21; 1-74
B6: anti-CD20 human IgG1 G236R/L328R (antibody)
heavy: not shown
light: B1 light
notes: also called 2-68
B7: anti-CD20 human IgG1 L235V/F243L/R292P/Y300L/P396L (antibody)
heavy: B1 heavy with Q238L, T239V, R240G, F247L, R296P, Y304L, P400L
light: B1 light
notes: also called 2-72
B8: anti-CD20 human IgG1 L234D/G236R (antibody)
heavy: not shown
light: B1 light
notes: also called 2-8; 1-24
B9: anti-CD20 human IgG1 L234T/G236R (antibody)
heavy: not shown
light: B1 light
notes: also called 2-59; 1-159
B10: anti-CD20 human IgG1 L235G/G236R (antibody)
heavy: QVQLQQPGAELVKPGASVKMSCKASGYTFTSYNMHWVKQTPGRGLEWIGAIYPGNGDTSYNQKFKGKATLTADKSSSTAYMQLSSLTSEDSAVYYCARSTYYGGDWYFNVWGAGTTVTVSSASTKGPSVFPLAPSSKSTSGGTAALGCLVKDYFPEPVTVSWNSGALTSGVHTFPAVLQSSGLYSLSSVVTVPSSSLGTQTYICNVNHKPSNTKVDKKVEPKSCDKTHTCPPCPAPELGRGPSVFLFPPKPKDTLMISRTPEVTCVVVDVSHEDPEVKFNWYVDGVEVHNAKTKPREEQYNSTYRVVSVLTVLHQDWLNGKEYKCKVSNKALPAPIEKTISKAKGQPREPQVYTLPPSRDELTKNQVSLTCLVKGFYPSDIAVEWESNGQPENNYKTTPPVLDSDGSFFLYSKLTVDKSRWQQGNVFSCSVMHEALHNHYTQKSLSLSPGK
light: B1 light
notes: also called 2-83
B11: anti-CD20 human IgG1 L234K/L235V/G236R (antibody)
heavy: B1 heavy with Q238K, T239V
light: B1 light
notes: also called 1-91; 2-26; copies: 2 + 2
B12: anti-CD20 human IgG1 L234D/L235S/G236R (antibody)
heavy: B1 heavy with Q238D, T239S
light: B1 light
notes: also called 1-29; 2-10; copies: 2 + 2
B13: anti-CD20 human IgG1 L234R/L235H/G236R (antibody)
heavy: B1 heavy with Q238R, T239H
light: B1 light
notes: also called 2-38; copies: 2 + 2
B14: anti-CD20 human IgG1 L234R/L235K/G236R (antibody)
heavy: B1 heavy with Q238R, T239K
light: B1 light
notes: also called 2-40; copies: 2 + 2
B15: anti-CD20 human IgG1 L234R/L235D/G236R (antibody)
heavy: B1 heavy with Q238R, T239D
light: B1 light
notes: copies: 2 + 2
B16: anti-CD20 human IgG1 L234Q/L235D/G236R (antibody)
heavy: B1 heavy with T239D
light: B1 light
notes: also called 2-28; copies: 2 + 2
B17: anti-CD20 human IgG1 L234T/L235S/G236R (antibody)
heavy: B1 heavy with Q238T, T239S
light: B1 light
notes: also called 2-62; copies: 2 + 2
B18: anti-CD20 human IgG1 L234R/L235I/G236R (antibody)
heavy: B1 heavy with Q238R, T239I
light: B1 light
notes: also called 2-39; copies: 2 + 2
B19: anti-CD20 human IgG1 L234R/L235R/G236R (antibody)
heavy: B1 heavy with Q238R, T239R
light: B1 light
notes: also called 2-43; copies: 2 + 2
B20: anti-CD20 human IgG1 L234S/L235G/G236R (antibody)
heavy: B1 heavy with Q238S, T239G
light: B1 light
notes: also called 1-140; 2-47; copies: 2 + 2
B21: anti-CD20 human IgG1 L234Q/L235A/G236R (antibody)
heavy: not shown
light: B1 light
notes: also called 2-27; copies: 2 + 2
B22: anti-CD20 human IgG1 L234T/L235K/G236R (antibody)
heavy: B1 heavy with Q238T, T239K
light: B1 light
notes: also called 2-58; copies: 2 + 2
B23: anti-CD20 human IgG1 L234Q/L235R/G236R (antibody)
heavy: B1 heavy with T239R
light: B1 light
notes: also called 2-32; copies: 2 + 2
B24: anti-CD20 human IgG1 L234A/L235S/G236R (antibody)
heavy: not shown
light: B1 light
notes: also called 1-14; 2-4; copies: 2 + 2

Positions count from the first letter of the chain named. Names may count otherwise.

The target in one assay is T1, Histidine-tagged recombinant human FcγRI (CD64) (human, UniProt P12314 16-288, limits assumed).
T1 construct: bought
The experiment in a line: SPR, His-FcγRI captured; Expt 3.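 Further: biacore T200 SPR at 25 °C, Fc-variant antibodies at 100 µg/mL flowed 1 min over anti-His-captured FcγRI, signal taken just before injection end minus a buffer blank cycle; antibody analyte injected at 100 µg/mL for 1 min.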
As to B1, the “Corrected response (RU)” value was determined as 1.4 RU.

With B2, the “Corrected response (RU)” value stood at 7.3 RU.

As to B3, the “Corrected response (RU)” value amounted to 5.8 RU.

As to B4, the “Corrected response (RU)” value turned out to be 5.2 RU.

Regarding B5, the “Corrected response (RU)” value is 5.9 RU.

As for B6, the “Corrected response (RU)” value is 65 RU.

Consider B7, for which the “Corrected response (RU)” value came to 2510 RU.

The next assay addresses T1, Histidine-tagged recombinant human …. Description: SPR, His-FcγRI captured; Expt 1.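 Further: SPR at 25 °C on anti-His antibody chip capturing FcγRI, Fc-variant antibodies injected at 100 µg/mL for 1 min, signal near end of injection minus buffer blank.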 Background: SPR reads the build-up and loss of mass on a sensor chip optically.
In the case of B2, the “Corrected response (RU)” value is -1 RU.

On to B4, for which the “Corrected response (RU)” value was determined as 6.3 RU.

Turning to B8, the “Corrected response (RU)” value was 135 RU.

In the case of B5, the “Corrected response (RU)” value worked out at 0.7 RU.

As to B6, the “Corrected response (RU)” value worked out at 8.8 RU.

B9: the “Corrected response (RU)” value was 156 RU.

For a further assay the target is unchanged. The experiment in a line: SPR, His-FcγRI captured; mean.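 Further: biacore T200 SPR at 25 °C, anti-His surface capturing FcγRI, Fc-variant antibodies injected at 100 µg/mL for 1 min, signal near injection end minus third buffer blank, three repeats.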
As for B4, the “Corrected response (RU), Mean” value was found to be 4.4 RU.

For another assay the target is unchanged. The experiment in a line: SPR, His-FcγRI captured; Expt 2.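 Further: biacore T200 SPR at 25 °C, Fc-variant antibodies at 100 µg/mL flowed 1 min over anti-His-captured receptor, signal read near injection end minus third buffer blank; antibody analyte injected at 100 µg/mL for 1 min.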
Description: Binding analysis was carried out by surface plasmon resonance at 25° C. using a Biacore® T200 instrument with Biacore® T200 control software. The sample compartment was held at 5° C. The running buffer (HBS-EP+) consisted of 0.01 M HEPES pH 7.4, containing 0.15 M NaCl, 3 mM EDTA, and 0.05% v/v Surfactant P20. Methods were run using the manufacturer's standard method wizards as described in the Biacore® T200 Instrument Handbook.
The cell was activated by treatment with EDC/NHS for 7 min. The antibody was diluted to 10 μg/mL in 10 mM sodium acetate pH 5.0 and injected for 7 min at 5 μL/min. The flow cell was deactivated by injection of 1M ethanolamine for 7 min. This process was repeated in the absence of anti-his antibody on a separate flow cell to generate a reference surface. […] Samples of purified antibodies comprising variant Fc regions (1 mg/mL in PBS) were diluted with running buffer to 100 μg/mL and were injected for 1 min at 30 μL/min and allowed to disassociate for 2 min. Between each cycle, the chip was regenerated by injection of 10 mM glycine pH 3.0 for 0.5 min at a flow rate of 30 μL/min and recharged with a fresh injection of FcγRI. At the beginning of each experiment, three blank cycles were run, with buffer alone being injected instead of test sample. The average SPR signal (relative to the reference cell) was measured in a window approximately 8 to 13 seconds before the injection of test sample (baseline) and approximately 3 to 8 seconds before the end of injection (response). The response of the third of the blank (buffer) samples was subtracted from the response of each test sample in order to allow for any dissociation of the bound FcγRI giving a corrected response for each test sample. The whole experiment was repeated three times with the test samples being analysed in different orders each time.
As to B3, the “Corrected response (RU)” value came out at 6.1 RU.

Turning to B10, the “Corrected response (RU)” value was determined as 125 RU.

On to B8, for which the “Corrected response (RU)” value is 77.7 RU.

In another assay the target is T2, Histidine-tagged recombinant human FcγRI (CD64) (human, UniProt P12314 16-288).
T2 construct: bought; also called Sino Biological Cat. No. 12056-H08H
Description: SPR, culture supernatant, captured His-FcγRI.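 Further: biacore T200 SPR at 25 °C, anti-His capture, supernatants of HEK293 cells expressing IgG1 Fc variants injected 1 min, reference-subtracted response read 55 s after injection start.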
Description: Binding analysis was carried out by surface plasmon resonance at 25° C. using a Biacore® T200 instrument with Biacore® T200 control software. The running buffer (HBS-EP+) consisted of 0.01 M HEPES pH 7.4, containing 0.15 M NaCl, 3 mM EDTA, and 0.05% v/v Surfactant P20. The sample compartment was held at 4° C. during analysis.
The cell was activated by treatment with EDC/NHS for 7 min. The antibody was diluted to 5 μg/mL in 10 mM sodium acetate pH 4.5 and injected for 7 min at 5 μL/min. The flow cell was deactivated by injection of 1M ethanolamine for 7 min. This process was repeated in the absence of anti-his antibody on a separate flow cell to generate a reference surface. […] Samples of undiluted culture supernatants from HEK293 cells expressing human IgG1 antibodies comprising variant Fc regions were injected for 1 min at 30 μL/min and allowed to disassociate for 2 min. […] Therefore, regeneration between cycles was not necessary. Responses on the test flow cell (coupled with anti-His antibody) were analysed after subtraction of responses on the control flow cell (sham-coupled). The relative binding response was measured 55 sec after the beginning of sample injection. To account for any possible drift in response due to slow dissociation of the His-tagged FcγRI, the binding response was measured relative to a baseline interpolated between report points located before sample injection and at the end of dissociation.
The whole experiment was repeated three times. Due to the relatively crude nature of the samples (variable refractive index, presence of culture media and other cellular products), some sensorgrams were unsatisfactory and were eliminated from analysis. The mean and standard deviation of binding response was then calculated for each sample.
Regarding B11, the Mean binding response was 12.8 RU.

Consider B12, for which the Mean binding response is 26.3 RU.

B13: the Mean binding response stood at 14.3 RU.

B14: the Mean binding response was determined as 19.2 RU.

Take B15: the Mean binding response amounted to 11.1 RU.

Turning to B16, the Mean binding response stood at 18.9 RU.

For the molecule B17, the Mean binding response amounted to 25.4 RU.

As to B18, the Mean binding response amounted to 10.7 RU.

Take B19: the Mean binding response was 17.2 RU.

For the molecule B20, the Mean binding response worked out at 11.2 RU.

For the molecule B21, the Mean binding response was 13.4 RU.

For the molecule B22, the Mean binding response stood at 6.7 RU.

For B23, the Mean binding response came out at 20.1 RU.

With B24, the Mean binding response was 32.1 RU.
